# According to patent US20230203177A1 (Bristol-Myers Squibb, published 2023):
# B1: M17 (HC-wt / LC-K45Q) (antibody, human IgG1, kappa)
# heavy: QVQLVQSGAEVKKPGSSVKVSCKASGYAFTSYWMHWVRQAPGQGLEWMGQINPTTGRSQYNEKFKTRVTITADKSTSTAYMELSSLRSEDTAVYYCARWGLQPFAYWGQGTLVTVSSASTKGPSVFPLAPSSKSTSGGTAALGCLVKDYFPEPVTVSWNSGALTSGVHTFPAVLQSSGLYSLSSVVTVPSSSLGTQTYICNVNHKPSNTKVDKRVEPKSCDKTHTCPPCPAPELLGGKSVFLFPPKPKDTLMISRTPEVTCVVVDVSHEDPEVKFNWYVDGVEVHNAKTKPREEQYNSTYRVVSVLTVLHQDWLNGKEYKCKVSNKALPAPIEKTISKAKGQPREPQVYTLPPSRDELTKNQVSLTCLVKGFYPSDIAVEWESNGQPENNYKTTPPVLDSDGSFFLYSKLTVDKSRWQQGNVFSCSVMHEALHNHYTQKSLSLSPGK
# light: DIQMTQSPSFLSASVGDRVTITCKASQDVSTAVAWYQQKPGKAPQLLIYSASYRYTGVPSRFSGSGSGTDFTLTISSLQPEDFATYYCQQHYSTPWTFGGGTKVEIKRTVAAPSVFIFPPSDEQLKSGTASVVCLLNNFYPREAKVQWKVDNALQSGNSQESVTEQDSKDSTYSLSSTLTLSKADYEKHKVYACEVTHQGLSSPVTKSFNRGEC
# notes: IgG1-P238K; also called HC1/LC2
# B2: M3 (HC-K12Q,K13Q,K23Q / LC-wt) (antibody, human IgG1, kappa)
# heavy: not shown
# light: DIQMTQSPSFLSASVGDRVTITCKASQDVSTAVAWYQQKPGKAPKLLIYSASYRYTGVPSRFSGSGSGTDFTLTISSLQPEDFATYYCQQHYSTPWTFGGGTKVEIKRTVAAPSVFIFPPSDEQLKSGTASVVCLLNNFYPREAKVQWKVDNALQSGNSQESVTEQDSKDSTYSLSSTLTLSKADYEKHKVYACEVTHQGLSSPVTKSFNRGEC
# notes: IgG1-P238K; also called HC3/LC1
# B3: M6 (HC-K12V,K19S,K23A / LC-wt) (antibody, human IgG1, kappa)
# heavy: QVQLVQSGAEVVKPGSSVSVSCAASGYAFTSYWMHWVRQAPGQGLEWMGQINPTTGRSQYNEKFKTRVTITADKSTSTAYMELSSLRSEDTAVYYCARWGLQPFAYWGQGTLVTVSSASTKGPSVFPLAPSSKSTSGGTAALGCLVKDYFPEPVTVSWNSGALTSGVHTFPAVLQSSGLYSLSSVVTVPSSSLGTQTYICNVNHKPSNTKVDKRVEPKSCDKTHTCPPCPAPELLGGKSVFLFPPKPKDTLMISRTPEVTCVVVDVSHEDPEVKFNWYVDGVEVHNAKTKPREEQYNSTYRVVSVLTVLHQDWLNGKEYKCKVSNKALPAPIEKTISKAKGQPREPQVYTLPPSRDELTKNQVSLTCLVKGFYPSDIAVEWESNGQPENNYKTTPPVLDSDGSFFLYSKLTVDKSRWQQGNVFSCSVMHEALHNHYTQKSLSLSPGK
# light: DIQMTQSPSFLSASVGDRVTITCKASQDVSTAVAWYQQKPGKAPKLLIYSASYRYTGVPSRFSGSGSGTDFTLTISSLQPEDFATYYCQQHYSTPWTFGGGTKVEIKRTVAAPSVFIFPPSDEQLKSGTASVVCLLNNFYPREAKVQWKVDNALQSGNSQESVTEQDSKDSTYSLSSTLTLSKADYEKHKVYACEVTHQGLSSPVTKSFNRGEC
# notes: IgG1-P238K; also called HC6/LC1
# B4: M15 (HC-R67Q / LC-wt) (antibody, human IgG1, kappa)
# heavy: not shown
# light: DIQMTQSPSFLSASVGDRVTITCKASQDVSTAVAWYQQKPGKAPKLLIYSASYRYTGVPSRFSGSGSGTDFTLTISSLQPEDFATYYCQQHYSTPWTFGGGTKVEIKRTVAAPSVFIFPPSDEQLKSGTASVVCLLNNFYPREAKVQWKVDNALQSGNSQESVTEQDSKDSTYSLSSTLTLSKADYEKHKVYACEVTHQGLSSPVTKSFNRGEC
# notes: IgG1-P238K; also called HC15/LC1
# B5: M5 (HC-K12E,K13Q,K23E / LC-wt) (antibody, human IgG1, kappa)
# heavy: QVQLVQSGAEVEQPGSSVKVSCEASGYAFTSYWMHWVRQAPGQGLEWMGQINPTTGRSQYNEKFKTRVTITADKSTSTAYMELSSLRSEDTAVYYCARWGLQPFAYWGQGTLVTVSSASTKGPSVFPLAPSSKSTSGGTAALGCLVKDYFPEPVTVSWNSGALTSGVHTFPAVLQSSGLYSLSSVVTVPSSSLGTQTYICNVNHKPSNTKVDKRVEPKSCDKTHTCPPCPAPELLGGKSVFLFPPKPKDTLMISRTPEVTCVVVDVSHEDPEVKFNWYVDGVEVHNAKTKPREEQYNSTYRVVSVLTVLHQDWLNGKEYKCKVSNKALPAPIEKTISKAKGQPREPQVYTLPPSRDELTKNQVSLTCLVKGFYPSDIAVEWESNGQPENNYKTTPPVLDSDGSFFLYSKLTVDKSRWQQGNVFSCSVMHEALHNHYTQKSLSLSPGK
# light: DIQMTQSPSFLSASVGDRVTITCKASQDVSTAVAWYQQKPGKAPKLLIYSASYRYTGVPSRFSGSGSGTDFTLTISSLQPEDFATYYCQQHYSTPWTFGGGTKVEIKRTVAAPSVFIFPPSDEQLKSGTASVVCLLNNFYPREAKVQWKVDNALQSGNSQESVTEQDSKDSTYSLSSTLTLSKADYEKHKVYACEVTHQGLSSPVTKSFNRGEC
# notes: IgG1-P238K; also called HC5/LC1
# B6: M21 (HC-K12E,K13Q,K23E / LC-K45Q) (antibody, human IgG1, kappa)
# heavy: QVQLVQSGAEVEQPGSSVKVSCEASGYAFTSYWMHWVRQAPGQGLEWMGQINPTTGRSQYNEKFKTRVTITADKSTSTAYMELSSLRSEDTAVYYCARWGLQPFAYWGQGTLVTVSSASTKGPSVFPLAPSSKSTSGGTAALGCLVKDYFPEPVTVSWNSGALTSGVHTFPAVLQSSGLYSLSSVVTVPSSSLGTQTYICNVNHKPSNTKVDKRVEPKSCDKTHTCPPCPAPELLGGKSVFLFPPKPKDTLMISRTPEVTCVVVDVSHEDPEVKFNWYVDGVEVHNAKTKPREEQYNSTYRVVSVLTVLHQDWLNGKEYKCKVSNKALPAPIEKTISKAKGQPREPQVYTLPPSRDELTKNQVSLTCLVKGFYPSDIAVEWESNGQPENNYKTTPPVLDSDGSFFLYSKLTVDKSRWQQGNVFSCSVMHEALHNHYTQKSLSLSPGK
# light: DIQMTQSPSFLSASVGDRVTITCKASQDVSTAVAWYQQKPGKAPQLLIYSASYRYTGVPSRFSGSGSGTDFTLTISSLQPEDFATYYCQQHYSTPWTFGGGTKVEIKRTVAAPSVFIFPPSDEQLKSGTASVVCLLNNFYPREAKVQWKVDNALQSGNSQESVTEQDSKDSTYSLSSTLTLSKADYEKHKVYACEVTHQGLSSPVTKSFNRGEC
# notes: IgG1-P238K; also called HC5/LC2
# B7: M9 (HC-K63Q,R67E / LC-wt) (antibody, human IgG1, kappa)
# heavy: not shown
# light: DIQMTQSPSFLSASVGDRVTITCKASQDVSTAVAWYQQKPGKAPKLLIYSASYRYTGVPSRFSGSGSGTDFTLTISSLQPEDFATYYCQQHYSTPWTFGGGTKVEIKRTVAAPSVFIFPPSDEQLKSGTASVVCLLNNFYPREAKVQWKVDNALQSGNSQESVTEQDSKDSTYSLSSTLTLSKADYEKHKVYACEVTHQGLSSPVTKSFNRGEC
# notes: IgG1-P238K; also called HC9/LC1
# B8: M12 (HC-R57E,K74Q / LC-wt) (antibody, human IgG1, kappa)
# heavy: not shown
# light: DIQMTQSPSFLSASVGDRVTITCKASQDVSTAVAWYQQKPGKAPKLLIYSASYRYTGVPSRFSGSGSGTDFTLTISSLQPEDFATYYCQQHYSTPWTFGGGTKVEIKRTVAAPSVFIFPPSDEQLKSGTASVVCLLNNFYPREAKVQWKVDNALQSGNSQESVTEQDSKDSTYSLSSTLTLSKADYEKHKVYACEVTHQGLSSPVTKSFNRGEC
# notes: IgG1-P238K; also called HC12/LC1
# B9: M14 (HC-K74T / LC-wt) (antibody, human IgG1, kappa)
# heavy: not shown
# light: DIQMTQSPSFLSASVGDRVTITCKASQDVSTAVAWYQQKPGKAPKLLIYSASYRYTGVPSRFSGSGSGTDFTLTISSLQPEDFATYYCQQHYSTPWTFGGGTKVEIKRTVAAPSVFIFPPSDEQLKSGTASVVCLLNNFYPREAKVQWKVDNALQSGNSQESVTEQDSKDSTYSLSSTLTLSKADYEKHKVYACEVTHQGLSSPVTKSFNRGEC
# notes: IgG1-P238K; also called HC14/LC1
# B10: M7 (HC-K23E / LC-wt) (antibody, human IgG1, kappa)
# heavy: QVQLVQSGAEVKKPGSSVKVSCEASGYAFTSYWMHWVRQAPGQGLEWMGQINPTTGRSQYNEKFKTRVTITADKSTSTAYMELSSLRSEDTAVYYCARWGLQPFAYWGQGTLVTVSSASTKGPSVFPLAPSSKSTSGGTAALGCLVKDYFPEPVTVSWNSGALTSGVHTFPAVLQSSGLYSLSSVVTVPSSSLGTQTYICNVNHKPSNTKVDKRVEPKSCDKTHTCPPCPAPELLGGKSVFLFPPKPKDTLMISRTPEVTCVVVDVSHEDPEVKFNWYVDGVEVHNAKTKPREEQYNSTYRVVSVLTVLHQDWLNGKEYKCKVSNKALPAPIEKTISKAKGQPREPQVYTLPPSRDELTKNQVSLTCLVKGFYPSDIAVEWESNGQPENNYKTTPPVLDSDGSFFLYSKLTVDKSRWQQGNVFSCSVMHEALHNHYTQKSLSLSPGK
# light: DIQMTQSPSFLSASVGDRVTITCKASQDVSTAVAWYQQKPGKAPKLLIYSASYRYTGVPSRFSGSGSGTDFTLTISSLQPEDFATYYCQQHYSTPWTFGGGTKVEIKRTVAAPSVFIFPPSDEQLKSGTASVVCLLNNFYPREAKVQWKVDNALQSGNSQESVTEQDSKDSTYSLSSTLTLSKADYEKHKVYACEVTHQGLSSPVTKSFNRGEC
# notes: IgG1-P238K; also called HC7/LC1
# B11: M24 (HC-R38Q,K63Q,R67Q / LC-K45Q) (antibody, human IgG1, kappa, V domains shown)
# VH: QVQLVQSGAEVKKPGSSVKVSCKASGYAFTSYWMHWVQQAPGQGLEWMGQINPTTGRSQYNEQFKTQVTITADKSTSTAYMELSSLRSEDTAVYYCARWGLQPFAYWGQGTLVTVSS
# VL: DIQMTQSPSFLSASVGDRVTITCKASQDVSTAVAWYQQKPGKAPQLLIYSASYRYTGVPSRFSGSGSGTDFTLTISSLQPEDFATYYCQQHYSTPWTFGGGTKVEIKR
# notes: IgG1-P238K; also called HC8/LC2
# B12: M23 (HC-K23E / LC-K45Q) (antibody, human IgG1, kappa)
# heavy: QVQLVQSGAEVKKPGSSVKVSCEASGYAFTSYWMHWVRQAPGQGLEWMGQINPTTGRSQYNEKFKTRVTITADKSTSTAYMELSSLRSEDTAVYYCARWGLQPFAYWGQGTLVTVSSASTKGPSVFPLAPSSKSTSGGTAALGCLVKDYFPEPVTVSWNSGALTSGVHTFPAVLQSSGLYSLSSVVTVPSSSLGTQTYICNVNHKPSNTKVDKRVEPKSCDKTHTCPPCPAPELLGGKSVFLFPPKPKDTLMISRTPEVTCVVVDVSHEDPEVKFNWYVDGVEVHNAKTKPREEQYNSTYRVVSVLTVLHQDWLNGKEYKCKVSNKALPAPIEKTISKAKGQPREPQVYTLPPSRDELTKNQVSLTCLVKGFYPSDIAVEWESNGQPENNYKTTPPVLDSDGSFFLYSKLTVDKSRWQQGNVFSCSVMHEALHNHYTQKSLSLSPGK
# light: DIQMTQSPSFLSASVGDRVTITCKASQDVSTAVAWYQQKPGKAPQLLIYSASYRYTGVPSRFSGSGSGTDFTLTISSLQPEDFATYYCQQHYSTPWTFGGGTKVEIKRTVAAPSVFIFPPSDEQLKSGTASVVCLLNNFYPREAKVQWKVDNALQSGNSQESVTEQDSKDSTYSLSSTLTLSKADYEKHKVYACEVTHQGLSSPVTKSFNRGEC
# notes: IgG1-P238K; also called HC7/LC2
# B13: M22 (HC-K12V,K19S,K23A / LC-K45Q) (antibody, human IgG1, kappa, V domains shown)
# VH: QVQLVQSGAEVVKPGSSVSVSCAASGYAFTSYWMHWVRQAPGQGLEWMGQINPTTGRSQYNEKFKTRVTITADKSTSTAYMELSSLRSEDTAVYYCARWGLQPFAYWGQGTLVTVSS
# VL: DIQMTQSPSFLSASVGDRVTITCKASQDVSTAVAWYQQKPGKAPQLLIYSASYRYTGVPSRFSGSGSGTDFTLTISSLQPEDFATYYCQQHYSTPWTFGGGTKVEIKR
# notes: IgG1-P238K; also called HC6/LC2
# B14: M19 (HC-K12Q,K13Q,K23Q / LC-K45Q) (antibody, human IgG1, kappa, V domains shown)
# VH: QVQLVQSGAEVQQPGSSVKVSCQASGYAFTSYWMHWVRQAPGQGLEWMGQINPTTGRSQYNEKFKTRVTITADKSTSTAYMELSSLRSEDTAVYYCARWGLQPFAYWGQGTLVTVSS
# VL: DIQMTQSPSFLSASVGDRVTITCKASQDVSTAVAWYQQKPGKAPQLLIYSASYRYTGVPSRFSGSGSGTDFTLTISSLQPEDFATYYCQQHYSTPWTFGGGTKVEIKR
# notes: IgG1-P238K; also called HC3/LC2
# B15: M18 (HC-K12Q,K13Q / LC-K45Q) (antibody, human IgG1, kappa)
# heavy: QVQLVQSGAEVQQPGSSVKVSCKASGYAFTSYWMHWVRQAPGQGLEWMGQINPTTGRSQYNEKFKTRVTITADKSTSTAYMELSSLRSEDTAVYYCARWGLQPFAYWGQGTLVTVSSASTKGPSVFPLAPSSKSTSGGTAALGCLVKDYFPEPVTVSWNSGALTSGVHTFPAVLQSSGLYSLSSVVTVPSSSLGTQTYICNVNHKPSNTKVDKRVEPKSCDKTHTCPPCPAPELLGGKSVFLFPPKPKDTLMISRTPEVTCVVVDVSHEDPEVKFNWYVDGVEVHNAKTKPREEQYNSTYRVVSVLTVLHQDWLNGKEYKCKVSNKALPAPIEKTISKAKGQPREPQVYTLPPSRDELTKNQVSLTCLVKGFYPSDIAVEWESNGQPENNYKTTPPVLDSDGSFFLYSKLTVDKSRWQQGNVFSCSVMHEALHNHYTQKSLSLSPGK
# light: DIQMTQSPSFLSASVGDRVTITCKASQDVSTAVAWYQQKPGKAPQLLIYSASYRYTGVPSRFSGSGSGTDFTLTISSLQPEDFATYYCQQHYSTPWTFGGGTKVEIKRTVAAPSVFIFPPSDEQLKSGTASVVCLLNNFYPREAKVQWKVDNALQSGNSQESVTEQDSKDSTYSLSSTLTLSKADYEKHKVYACEVTHQGLSSPVTKSFNRGEC
# notes: IgG1-P238K; also called HC2/LC2
# B16: M25 (HC-K63Q,R67E / LC-K45Q) (antibody, human IgG1, kappa, V domains shown)
# VH: QVQLVQSGAEVKKPGSSVKVSCKASGYAFTSYWMHWVRQAPGQGLEWMGQINPTTGRSQYNEQFKTEVTITADKSTSTAYMELSSLRSEDTAVYYCARWGLQPFAYWGQGTLVTVSS
# VL: DIQMTQSPSFLSASVGDRVTITCKASQDVSTAVAWYQQKPGKAPQLLIYSASYRYTGVPSRFSGSGSGTDFTLTISSLQPEDFATYYCQQHYSTPWTFGGGTKVEIKR
# notes: IgG1-P238K; also called HC9/LC2
# B17: M16 (HC-K63Q / LC-wt) (antibody, human IgG1, kappa)
# heavy: not shown
# light: DIQMTQSPSFLSASVGDRVTITCKASQDVSTAVAWYQQKPGKAPKLLIYSASYRYTGVPSRFSGSGSGTDFTLTISSLQPEDFATYYCQQHYSTPWTFGGGTKVEIKRTVAAPSVFIFPPSDEQLKSGTASVVCLLNNFYPREAKVQWKVDNALQSGNSQESVTEQDSKDSTYSLSSTLTLSKADYEKHKVYACEVTHQGLSSPVTKSFNRGEC
# notes: IgG1-P238K; also called HC16/LC1
# B18: M20 (HC-K12E / LC-K45Q) (antibody, human IgG1, kappa)
# heavy: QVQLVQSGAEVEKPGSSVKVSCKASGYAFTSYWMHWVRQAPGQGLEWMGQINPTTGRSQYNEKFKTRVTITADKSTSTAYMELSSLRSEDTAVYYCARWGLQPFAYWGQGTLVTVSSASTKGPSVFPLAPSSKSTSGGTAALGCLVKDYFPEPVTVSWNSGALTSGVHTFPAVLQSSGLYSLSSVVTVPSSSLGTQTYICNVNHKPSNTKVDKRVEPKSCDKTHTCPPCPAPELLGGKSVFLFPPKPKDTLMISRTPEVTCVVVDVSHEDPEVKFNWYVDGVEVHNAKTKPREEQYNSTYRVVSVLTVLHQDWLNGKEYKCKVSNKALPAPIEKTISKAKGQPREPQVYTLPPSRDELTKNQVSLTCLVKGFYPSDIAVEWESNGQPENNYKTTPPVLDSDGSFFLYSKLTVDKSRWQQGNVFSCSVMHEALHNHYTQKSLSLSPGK
# light: DIQMTQSPSFLSASVGDRVTITCKASQDVSTAVAWYQQKPGKAPQLLIYSASYRYTGVPSRFSGSGSGTDFTLTISSLQPEDFATYYCQQHYSTPWTFGGGTKVEIKRTVAAPSVFIFPPSDEQLKSGTASVVCLLNNFYPREAKVQWKVDNALQSGNSQESVTEQDSKDSTYSLSSTLTLSKADYEKHKVYACEVTHQGLSSPVTKSFNRGEC
# notes: IgG1-P238K; also called HC4/LC2
# B19: M8 (HC-R38Q,K63Q,R67Q / LC-wt) (antibody, human IgG1, kappa)
# heavy: not shown
# light: DIQMTQSPSFLSASVGDRVTITCKASQDVSTAVAWYQQKPGKAPKLLIYSASYRYTGVPSRFSGSGSGTDFTLTISSLQPEDFATYYCQQHYSTPWTFGGGTKVEIKRTVAAPSVFIFPPSDEQLKSGTASVVCLLNNFYPREAKVQWKVDNALQSGNSQESVTEQDSKDSTYSLSSTLTLSKADYEKHKVYACEVTHQGLSSPVTKSFNRGEC
# notes: IgG1-P238K; also called HC8/LC1
# B20: M2 (HC-K12Q,K13Q / LC-wt) (antibody, human IgG1, kappa)
# heavy: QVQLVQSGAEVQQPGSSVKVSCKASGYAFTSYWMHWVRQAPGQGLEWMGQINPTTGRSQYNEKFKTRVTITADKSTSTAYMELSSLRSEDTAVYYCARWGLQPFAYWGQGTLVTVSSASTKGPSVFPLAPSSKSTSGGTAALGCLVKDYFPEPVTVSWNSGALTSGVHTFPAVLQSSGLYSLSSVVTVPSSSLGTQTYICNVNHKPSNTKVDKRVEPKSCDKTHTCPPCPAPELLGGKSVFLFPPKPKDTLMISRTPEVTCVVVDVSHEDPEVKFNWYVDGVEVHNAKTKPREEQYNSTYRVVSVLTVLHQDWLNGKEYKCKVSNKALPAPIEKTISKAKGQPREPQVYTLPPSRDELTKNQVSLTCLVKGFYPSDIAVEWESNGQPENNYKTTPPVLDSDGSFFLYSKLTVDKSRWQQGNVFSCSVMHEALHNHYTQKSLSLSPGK
# light: DIQMTQSPSFLSASVGDRVTITCKASQDVSTAVAWYQQKPGKAPKLLIYSASYRYTGVPSRFSGSGSGTDFTLTISSLQPEDFATYYCQQHYSTPWTFGGGTKVEIKRTVAAPSVFIFPPSDEQLKSGTASVVCLLNNFYPREAKVQWKVDNALQSGNSQESVTEQDSKDSTYSLSSTLTLSKADYEKHKVYACEVTHQGLSSPVTKSFNRGEC
# notes: IgG1-P238K; also called HC2/LC1
# B21: M11 (HC-R57E / LC-wt) (antibody, human IgG1, kappa)
# heavy: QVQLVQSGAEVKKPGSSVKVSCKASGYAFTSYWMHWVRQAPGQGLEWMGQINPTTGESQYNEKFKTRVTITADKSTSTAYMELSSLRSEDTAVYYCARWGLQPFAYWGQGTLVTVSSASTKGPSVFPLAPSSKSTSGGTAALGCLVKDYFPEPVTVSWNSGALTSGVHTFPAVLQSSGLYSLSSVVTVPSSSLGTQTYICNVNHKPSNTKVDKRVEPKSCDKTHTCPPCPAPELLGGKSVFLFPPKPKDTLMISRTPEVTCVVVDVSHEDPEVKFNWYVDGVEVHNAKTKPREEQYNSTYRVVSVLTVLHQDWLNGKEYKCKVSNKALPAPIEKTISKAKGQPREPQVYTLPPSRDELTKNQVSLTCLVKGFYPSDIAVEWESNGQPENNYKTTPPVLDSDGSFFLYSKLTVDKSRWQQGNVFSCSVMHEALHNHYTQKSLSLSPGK
# light: DIQMTQSPSFLSASVGDRVTITCKASQDVSTAVAWYQQKPGKAPKLLIYSASYRYTGVPSRFSGSGSGTDFTLTISSLQPEDFATYYCQQHYSTPWTFGGGTKVEIKRTVAAPSVFIFPPSDEQLKSGTASVVCLLNNFYPREAKVQWKVDNALQSGNSQESVTEQDSKDSTYSLSSTLTLSKADYEKHKVYACEVTHQGLSSPVTKSFNRGEC
# notes: IgG1-P238K; also called HC11/LC1
# Target: T1, soluble human CD40 extracellular domain (human, UniProt P25942 21-193)
# T1 construct: Produced in house; also called hCD40; soluble hCD40 extracellular domain
# Experiment: SPR, Ab captured from supernatant on protein A, hCD40 ECD analyte
# Protocol: The titer data (Table 21) were used to normalize the antibody concentration in each supernatant to 3 μg/ml, and these antibodies were captured out of the supernatants on a protein A CMS Series S sensor chip (GE Healthcare), and tested for binding to two concentrations (5 nM and 50 nM) of soluble hCD40 extracellular domain.
# CD40 binding SPR of antibody supernatants: Surface plasmon resonance (SPR) studies were conducted on a BIAcore™ T200 instrument (GE Healthcare, Chicago Ill.). A Series S Protein A sensor chip (GE Healthcare, Chicago Ill.) was equilibrated with SPR running buffer of 10 mM NaPO₄, 130 mM NaCl, 0.05% tween 20, (PBS-T) pH 7.2 at 25° C. The 96 antibody supernatants were normalized to a concentration of 3 μg/ml by diluting with PBS-T using a PerkinElmer JANUS® G3 system (PerkinElmer, Akron, Ohio). After priming the system, the 3 μg/ml antibody samples were captured on the protein A surface for 30 s at 10 μl/min Binding of 50 nM and 500 nM human CD40 extracellular domain (produced in house) was evaluated using association time of 180 s at 30 μl/min, followed by a dissociation time of 180 s at 30 μl/min Regeneration between cycles was accomplished using two 15 s injections of 10 mM glycine pH 1.5. […] Data were analyzed using BIAcore™ T200 evaluation software by fitting to a 1:1 Langmuir model.
# T1 sequence (P25942 21-193 limits assumed): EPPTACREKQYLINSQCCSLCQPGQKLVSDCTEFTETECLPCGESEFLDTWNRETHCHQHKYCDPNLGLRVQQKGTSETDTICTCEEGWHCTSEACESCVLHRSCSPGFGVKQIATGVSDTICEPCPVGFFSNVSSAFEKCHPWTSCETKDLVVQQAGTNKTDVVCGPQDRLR
row,Binder,Kd
1,B1,4.1 nM
2,B2,3.7 nM
3,B3,3.8 nM
4,B4,3.4 nM
5,B5,3.8 nM
6,B6,3.7 nM
7,B7,3.2 nM
8,B8,14 nM
9,B9,4 nM
10,B10,4.5 nM
11,B11,2.9 nM
12,B12,4.1 nM
13,B13,3.5 nM
14,B14,3.8 nM
15,B15,3.4 nM
16,B16,3.1 nM
17,B17,4.1 nM
18,B18,3.3 nM
19,B19,3.4 nM
20,B20,3.7 nM
21,B21,10.2 nM
